We go through one molecule from article PMC8542614.

“And” between values parts separate entries of the source, which are not always exact repeats. Equal entries are not always repeated. Where two headings read alike, the source gives them in different places.

The target in assay [1] is HCV E2 ectodomain (eE2), full length, residues 384-656, genotype J6 (HCV genotype J6). Put plainly: ITC.
Assay [2] has the same target. The assay can be described thus: ITC. This is another data set of the same source. (In general: Isothermal titration calorimetry measures the heat released or taken up as one component is titrated into another.)

B1: human CD81 large extracellular loop (hCD81-LEL), residues 112-202 (domain or fragment)
chain: GFVNKDQIAKDVKQFYDQALQQAVVDDDANNAKAVVKTFHETLDCCGSSTLTALTTSVLKNNLCPSGSNIISNLFKEDCHQKIDDLFSGKL
In the case of B1, in assay [1], the Kd (commonly a measure of binding affinity in units of concentration) was 681 nM; the dH is -7.89 kcal/mol and -6.65 kcal/mol; the stoichiometry N (in general, a count of units in the complex or per binding partner) was 0.99 and 0.86. The molecule further had a Kd in assay [2] of 773 nM.
